Data taken from patent US20230416371A1 (Chugai, published 2023).

Experiments:
[1] = biological target: T1, human FcγRIIIa F (allotype F158) extracellular domain (human, UniProt P08637 17-208); experiment: SPR Biacore 8K+; KD for FcγRIIb divided by KD for this FcγR
T1 construct: extracellular domain; also called hFcγRIIIaF
Procedure: (§1) The extracellular domains of FcγRs were produced by the method described in WO2014104165. The interaction between the produced antibodies and human FcγRs was analyzed using Biacore 8K+by the method below. For the running buffer, 50 mM Na-Phosphate, 150 mM NaCl, and 0.05% Tween20 (pH 7.4) was used, and measurement was performed at 25° C. The sensor chip used was a Series S SA chip (GE Healthcare) onto which CaptureSelect Human Fab-kappa Kinetics Biotin Conjugate (Thermo Fisher Scientific) was immobilized. An antibody of interest was captured onto this chip, and each FcγR diluted with the running buffer was allowed to interact with it. The chip was regenerated using 10 mM Glycine-HCl (pH 1.5), and repeatedly used to capture antibodies and perform measurement. The dissociation constants KD (mol/L) of each antibody for FcγRs were calculated using Biacore Insight Evaluation Software, with a steady state affinity model for the dissociation constant for FcγRIIb and a 1:1 Langmuir binding model for the dissociation constants for the other FcγRs (Table 2).

[2] = biological target: T2, human FcγRIIIa V (allotype V158) extracellular domain (human, UniProt P08637 17-208); experiment: as above
T2 construct: extracellular domain; also called hFcγRIIIaV
T2 sequence (P08637 17-208 F176V): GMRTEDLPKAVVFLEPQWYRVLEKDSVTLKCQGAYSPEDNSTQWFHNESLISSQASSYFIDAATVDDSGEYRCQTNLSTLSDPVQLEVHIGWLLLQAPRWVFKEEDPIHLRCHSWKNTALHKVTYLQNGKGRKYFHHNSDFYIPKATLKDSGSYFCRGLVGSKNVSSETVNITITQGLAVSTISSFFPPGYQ
Procedure: as §1

T1 sequence (P08637 17-208): as the sequence (P08637 17-208 F176V) above, with V160F counted along it

B1: EGL-ART6 (H240-Kn462/L73-k0//H240-HI445/L73-k0) (antibody, human IgG1, kappa)
heavy 1: QDQLVQSGAEVKKPGASVKVSCKASGFNIKDTYIQWVRQAPGQGLEWMGRIDPLRKQTKYREKFEGRVTITADTSTNTAYMELSSLRSEDTAVYYCVRSGREFDYWGQGTLVTVSSASTKGPSVFPLAPSSKSTSGGTAALGCLVKDYFPEPVTVSWNSGALTSGVHTFPAVLQSSGLYSLSSVVTVPSSSLGTQTYICNVNHKPSNTKVDKKVEPKSCDKTHTCPPCPAPEFQWGPMVFLFPPKPKDVLMISRTPEVTCVVVDVSDEEPEVKFNWYVDGVEVHNAKTKPREEQYNATYRVVSVLPVLHQDWLNGKEYKCKVSNDALPAPIEKTISKAKGQPREPQVCTLPPSRDELTKNQVSLWCLVKGFYPSDIAVEWESNGQPENNYKTTPPVLDSDGSFFLYSKLTVDKSRWQQGNVFSCSVMHEALHNHYTQKSLSLSP
heavy 2: QDQLVQSGAEVKKPGASVKVSCKASGFNIKDTYIQWVRQAPGQGLEWMGRIDPLRKQTKYREKFEGRVTITADTSTNTAYMELSSLRSEDTAVYYCVRSGREFDYWGQGTLVTVSSASTKGPSVFPLAPSSKSTSGGTAALGCLVKDYFPEPVTVSWNSGALTSGVHTFPAVLQSSGLYSLSSVVTVPSSSLGTQTYICNVNHKPSNTKVDKKVEPKSCDKTHTCPPCPAPELLAGPSVFLFPPKPKDVLMISRTPEVTCVVVDVSHEEPEVKFNWYVDGVEVHNAKTKPREEQYNATYRVVSVLPVLHQDWLNGKEYKCKVSNDALPKPDEETISKAKGQPREPQVYTLPPSRCELTKNQVSLSCAVKGFYPSDIAVEWESNGQPENNYKTTPPVLDSDGSFFLVSKLTVDKSRWQQGNVFSCSVMHEALHNHYTQKSLSLSP
light: DIQMTQSPSSLSASVGDRVTITCRASQDIHKYIAWYQQKPGQAPRLLIQYTSTLQPGVPSRFSGSGSGTDYTFTISSLQPEDIATYYCLQYEQLRTFGGGTKVEIKRTVAAPSVFIFPPSDEQLKSGTASVVCLLNNFYPREAKVQWKVDNALQSGNSQESVTEQDSKDSTYSLSSTLTLSKADYEKHKVYACEVTHQGLSSPVTKSFNRGEC
notes: Anti-human Epiregulin IgG1 with heterodimeric (knobs-into-holes) Fc variant
- A/I ratio (KD for FcγRIIb divided by KD for each FcγR) [1]: 975
- A/I ratio (KD for FcγRIIb divided by KD for each FcγR) [2]: 2030
